# Values of other authors as cited in article PMC3433420.
# Read-outs that look alike come from different tables or passages of the source.
# How the values were obtained:
# Conditions in all cases: cited from earlier work
# TENC1 (Homo sapiens) = TENC1 (Homo sapiens) (UniProt Q63HR2)
# SOCS2 (Homo sapiens) = SOCS2 (Homo sapiens) (UniProt O14508)
# PTPN6-C (Homo sapiens) [1] = target: PTPN6-C (Homo sapiens) (UniProt P29350)
# PIK3R2-NC (Homo sapiens) [2] = target: PIK3R2-NC (Homo sapiens) (UniProt O00459)
# SH2B2 (Homo sapiens) = SH2B2 (Homo sapiens) (UniProt O14492)
# SLA2 (Homo sapiens) [3] = target: SLA2 (Homo sapiens) (UniProt Q9H6Q3)
# SHB (Homo sapiens) = SHB (Homo sapiens) (UniProt Q15464)
# PIK3R1-NC (Homo sapiens) = PIK3R1-NC (Homo sapiens) (UniProt P27986)
# NCK2 (Homo sapiens) = NCK2 (Homo sapiens) (UniProt O43639)
# CRK (Homo sapiens) = CRK (Homo sapiens) (UniProt P46108)
# PTPN11-N (Homo sapiens) = PTPN11-N (Homo sapiens) (UniProt Q06124)
# PLCG1-C (Homo sapiens) = PLCG1-C (Homo sapiens) (UniProt P19174)
# SYK-NC (Homo sapiens) = SYK-NC (Homo sapiens) (UniProt P43405)
# FER (Homo sapiens) = FER (Homo sapiens) (UniProt P16591)
# PIK3R2-NC (Homo sapiens) [4] = target: PIK3R2-NC (Homo sapiens) (UniProt O00459); remark: listed apart in the source
# HSH2D (Homo sapiens) = HSH2D (Homo sapiens) (UniProt Q96JZ2)
# SLA2 (Homo sapiens) [5] = target: SLA2 (Homo sapiens) (UniProt Q9H6Q3); remark: listed apart in the source
# RASA1-N (Homo sapiens) = RASA1-N (Homo sapiens) (UniProt P20936)
# TEC (Homo sapiens) = TEC (Homo sapiens) (UniProt P42680)
# SOCS5 (Homo sapiens) = SOCS5 (Homo sapiens) (UniProt O75159)
# SHF (Homo sapiens) [6] = target: SHF (Homo sapiens) (UniProt Q7M4L6)
# PLCG1-N (Homo sapiens) = PLCG1-N (Homo sapiens) (UniProt P19174)
# SHF (Homo sapiens) [7] = target: SHF (Homo sapiens) (UniProt Q7M4L6); remark: listed apart in the source
# SLA (Homo sapiens) = SLA (Homo sapiens) (UniProt Q13239)
# TNS1 (Homo sapiens) = TNS1 (Homo sapiens) (UniProt Q9HBL0)
# PTPN6-C (Homo sapiens) [8] = target: PTPN6-C (Homo sapiens) (UniProt P29350); remark: listed apart in the source
# BLK (Homo sapiens) = BLK (Homo sapiens) (UniProt P51451)
# SOCS1 (Homo sapiens) = SOCS1 (Homo sapiens) (UniProt O15524)
# PIK3R1-C (Homo sapiens) = PIK3R1-C (Homo sapiens) (UniProt P27986)
# SYK-N (Homo sapiens) = SYK-N (Homo sapiens) (UniProt P43405)
# Sequence of SLA2 (Homo sapiens) (Q9H6Q3 89-196): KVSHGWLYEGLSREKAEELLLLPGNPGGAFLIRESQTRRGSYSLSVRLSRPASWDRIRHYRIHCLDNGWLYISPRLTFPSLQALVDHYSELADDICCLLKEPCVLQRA
# Sequence of PTPN6-C (Homo sapiens) (P29350 1-218): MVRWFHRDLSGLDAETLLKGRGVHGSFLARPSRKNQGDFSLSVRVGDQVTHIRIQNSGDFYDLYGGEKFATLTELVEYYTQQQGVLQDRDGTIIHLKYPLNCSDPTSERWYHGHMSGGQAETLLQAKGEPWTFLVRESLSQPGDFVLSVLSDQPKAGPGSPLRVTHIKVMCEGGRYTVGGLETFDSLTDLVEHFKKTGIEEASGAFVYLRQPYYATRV
# Sequence of PIK3R2-NC (Homo sapiens) (O00459 325-721): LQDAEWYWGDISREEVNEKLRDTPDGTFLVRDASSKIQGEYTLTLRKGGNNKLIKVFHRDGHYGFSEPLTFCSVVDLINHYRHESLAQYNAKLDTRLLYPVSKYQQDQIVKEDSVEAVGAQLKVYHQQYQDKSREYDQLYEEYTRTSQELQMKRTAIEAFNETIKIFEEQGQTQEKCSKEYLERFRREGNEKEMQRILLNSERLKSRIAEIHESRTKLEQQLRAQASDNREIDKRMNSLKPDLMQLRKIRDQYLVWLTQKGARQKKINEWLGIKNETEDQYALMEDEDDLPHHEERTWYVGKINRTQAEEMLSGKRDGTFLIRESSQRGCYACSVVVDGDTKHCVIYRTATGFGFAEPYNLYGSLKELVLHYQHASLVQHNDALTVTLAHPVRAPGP
# Sequence of SHF (Homo sapiens) (Q7M4L6 318-423): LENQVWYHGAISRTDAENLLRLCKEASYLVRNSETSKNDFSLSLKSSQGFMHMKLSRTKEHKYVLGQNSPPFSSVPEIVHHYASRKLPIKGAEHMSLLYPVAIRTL
# Sequence of SHB (Homo sapiens) (Q15464 405-509): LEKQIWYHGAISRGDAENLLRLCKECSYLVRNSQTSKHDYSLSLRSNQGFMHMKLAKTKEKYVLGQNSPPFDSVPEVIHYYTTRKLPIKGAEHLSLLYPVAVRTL
# Sequence of PLCG1-C (Homo sapiens) (P19174 545-761): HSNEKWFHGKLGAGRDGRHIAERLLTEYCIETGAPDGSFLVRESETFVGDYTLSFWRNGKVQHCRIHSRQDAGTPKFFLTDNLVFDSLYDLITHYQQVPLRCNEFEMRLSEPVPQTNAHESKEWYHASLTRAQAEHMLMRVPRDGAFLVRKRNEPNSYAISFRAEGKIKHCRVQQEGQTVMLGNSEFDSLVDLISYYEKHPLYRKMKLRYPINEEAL
# Sequence of PLCG1-N (Homo sapiens) (P19174 545-761): as above
# Sequence of NCK2 (Homo sapiens) (O43639 280-380): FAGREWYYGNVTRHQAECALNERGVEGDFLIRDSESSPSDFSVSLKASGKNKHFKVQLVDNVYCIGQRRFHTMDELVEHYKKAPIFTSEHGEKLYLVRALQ
# Sequence of RASA1-N (Homo sapiens) (P20936 176-446): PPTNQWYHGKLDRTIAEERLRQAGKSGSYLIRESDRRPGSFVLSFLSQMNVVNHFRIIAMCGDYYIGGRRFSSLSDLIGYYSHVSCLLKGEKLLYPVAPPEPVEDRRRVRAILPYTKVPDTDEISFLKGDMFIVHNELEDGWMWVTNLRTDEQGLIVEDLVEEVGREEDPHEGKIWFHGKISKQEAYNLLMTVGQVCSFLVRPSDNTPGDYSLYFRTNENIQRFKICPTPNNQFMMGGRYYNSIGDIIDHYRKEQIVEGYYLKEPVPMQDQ
# Sequence of CRK (Homo sapiens) (P46108 8-123): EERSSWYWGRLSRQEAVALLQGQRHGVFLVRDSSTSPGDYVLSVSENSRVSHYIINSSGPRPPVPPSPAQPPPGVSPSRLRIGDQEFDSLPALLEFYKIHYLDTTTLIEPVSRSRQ
# Sequence of BLK (Homo sapiens) (P51451 119-225): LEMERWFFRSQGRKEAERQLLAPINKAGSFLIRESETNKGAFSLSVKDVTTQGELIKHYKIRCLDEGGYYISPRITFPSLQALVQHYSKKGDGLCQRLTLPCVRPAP
# Sequence of SLA (Homo sapiens) (Q13239 79-180): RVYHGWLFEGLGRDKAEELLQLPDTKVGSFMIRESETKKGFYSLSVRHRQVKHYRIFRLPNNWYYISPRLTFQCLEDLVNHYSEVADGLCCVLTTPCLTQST
# Sequence of HSH2D (Homo sapiens) (Q96JZ2 29-130): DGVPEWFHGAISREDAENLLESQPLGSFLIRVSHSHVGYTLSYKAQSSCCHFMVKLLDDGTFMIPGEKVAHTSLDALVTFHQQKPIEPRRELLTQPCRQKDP
# Sequence of PIK3R1-NC (Homo sapiens) (P27986 328-723): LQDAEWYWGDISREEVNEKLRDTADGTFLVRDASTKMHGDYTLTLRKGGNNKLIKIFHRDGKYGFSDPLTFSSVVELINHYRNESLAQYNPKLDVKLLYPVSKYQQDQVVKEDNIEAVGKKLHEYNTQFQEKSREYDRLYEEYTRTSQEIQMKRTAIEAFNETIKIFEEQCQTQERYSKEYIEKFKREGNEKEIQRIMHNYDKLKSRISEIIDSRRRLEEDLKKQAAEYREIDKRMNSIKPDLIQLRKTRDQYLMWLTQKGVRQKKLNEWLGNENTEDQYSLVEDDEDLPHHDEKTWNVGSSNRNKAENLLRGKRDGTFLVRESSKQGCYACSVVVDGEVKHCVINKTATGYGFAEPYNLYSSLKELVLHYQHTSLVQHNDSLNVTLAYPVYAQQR
# Sequence of PIK3R1-C (Homo sapiens) (P27986 328-723): as above
# Sequence of FER (Homo sapiens) (P16591 455-555): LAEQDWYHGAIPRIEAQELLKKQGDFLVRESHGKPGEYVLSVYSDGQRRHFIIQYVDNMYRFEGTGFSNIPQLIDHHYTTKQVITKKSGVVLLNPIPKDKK
# Sequence of SOCS2 (Homo sapiens) (O14508 43-161): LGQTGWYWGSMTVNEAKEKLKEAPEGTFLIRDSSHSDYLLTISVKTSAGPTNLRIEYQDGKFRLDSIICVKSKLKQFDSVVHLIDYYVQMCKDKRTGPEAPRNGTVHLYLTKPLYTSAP
# Sequence of SOCS1 (Homo sapiens) (O15524 74-179): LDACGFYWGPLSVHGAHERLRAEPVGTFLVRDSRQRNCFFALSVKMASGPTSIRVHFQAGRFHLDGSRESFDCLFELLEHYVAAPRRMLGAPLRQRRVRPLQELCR
# Sequence of SOCS5 (Homo sapiens) (O75159 376-481): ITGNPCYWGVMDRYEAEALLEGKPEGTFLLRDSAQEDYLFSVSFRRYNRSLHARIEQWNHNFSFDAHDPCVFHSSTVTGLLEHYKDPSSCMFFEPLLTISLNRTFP
# Sequence of TEC (Homo sapiens) (P42680 242-350): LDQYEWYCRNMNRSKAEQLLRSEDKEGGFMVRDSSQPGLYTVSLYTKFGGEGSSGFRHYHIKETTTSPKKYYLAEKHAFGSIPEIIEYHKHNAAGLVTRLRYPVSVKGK
# Sequence of TNS1 (Homo sapiens) (Q9HBL0 1562-1681): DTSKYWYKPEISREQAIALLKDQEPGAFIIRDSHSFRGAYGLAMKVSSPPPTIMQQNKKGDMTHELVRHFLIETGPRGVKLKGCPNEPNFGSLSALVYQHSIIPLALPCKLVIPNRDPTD
# Sequence of SH2B2 (Homo sapiens) (O14492 412-520): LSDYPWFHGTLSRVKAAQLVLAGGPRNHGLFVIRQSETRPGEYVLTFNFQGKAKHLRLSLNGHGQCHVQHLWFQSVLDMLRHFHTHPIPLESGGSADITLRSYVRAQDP
# Sequence of TENC1 (Homo sapiens) (Q63HR2 1135-1252): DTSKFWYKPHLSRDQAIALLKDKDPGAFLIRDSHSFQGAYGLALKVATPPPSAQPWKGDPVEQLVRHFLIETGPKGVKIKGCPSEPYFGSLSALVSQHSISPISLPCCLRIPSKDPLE
substance,measurement,setting,value
…pYLVPQQGF,apparent Kd (screen),TENC1 (Homo sapiens),2000 nM
same,apparent Kd (screen),SOCS2 (Homo sapiens),2000 nM
same,apparent Kd (screen),PTPN6-C (Homo sapiens) [1],2000 nM
same,apparent Kd (screen),PIK3R2-NC (Homo sapiens) [2],2000 nM
same,apparent Kd (screen),SH2B2 (Homo sapiens),2000 nM
same,apparent Kd (screen),SLA2 (Homo sapiens) [3],2000 nM
…pYLIPQQGFd,apparent Kd (screen),SHB (Homo sapiens),1990 nM
same,apparent Kd (screen),PIK3R1-NC (Homo sapiens),295 nM
same,apparent Kd (screen),NCK2 (Homo sapiens),2000 nM
same,apparent Kd (screen),CRK (Homo sapiens),470 nM
same,apparent Kd (screen),PTPN11-N (Homo sapiens),379 nM
same,apparent Kd (screen),PLCG1-C (Homo sapiens),2000 nM
same,apparent Kd (screen),SYK-NC (Homo sapiens),611 nM
…pYEEMRAFQ,apparent Kd (screen),FER (Homo sapiens),499 nM
same,apparent Kd (screen),PIK3R2-NC (Homo sapiens) [4],86 nM
same,apparent Kd (screen),HSH2D (Homo sapiens),2000 nM
same,apparent Kd (screen),SLA2 (Homo sapiens) [5],2000 nM
same,apparent Kd (screen),RASA1-N (Homo sapiens),1350 nM
…pYWDQDPPE,apparent Kd (screen),TEC (Homo sapiens),1600 nM
same,apparent Kd (screen),SOCS5 (Homo sapiens),2000 nM
same,apparent Kd (screen),SHF (Homo sapiens) [6],2000 nM
same,apparent Kd (screen),PLCG1-N (Homo sapiens),2000 nM
same,apparent Kd (screen),SHF (Homo sapiens) [7],586 nM
same,apparent Kd (screen),SLA (Homo sapiens),2000 nM
same,apparent Kd (screen),TNS1 (Homo sapiens),2000 nM
same,apparent Kd (screen),PTPN6-C (Homo sapiens) [8],2000 nM
same,apparent Kd (screen),BLK (Homo sapiens),2000 nM
same,apparent Kd (screen),SOCS1 (Homo sapiens),1920 nM
same,apparent Kd (screen),PIK3R1-C (Homo sapiens),2000 nM
same,apparent Kd (screen),SYK-N (Homo sapiens),203 nM
